Measurements from paper PMC6402204, “Production Optimization of an Active β-Galactosidase of Bifidobacterium animalis in Heterologous Expression Systems” (BioMed Research International, 2019).

Substrate: O=[N+]([O-])c1ccccc1O[C@@H]1O[C@H](CO)[C@H](O)[C@H](O)[C@H]1O
Assay: purified protein
Type: biochemical, Bifidobacterium animalis
Conditions: pH 6.0, 100 mM Na2HPO4-citric acid, 60°C, oNPG 1.38-25 mM, free enzyme

B1: bG42-106 (Bifidobacterium animalis subsp. lactis) (protein)
chain: MSASTQHRAHRWPQPLPGNDRKIWFGADYNPDQWPEDVQDEDIRLMKQAGVNIVSLAIFSWANIETSDGNFEFDWLDRVIDKLYKAGIAVDLASATASPPMWLTSAHPEVLRRDEQGHVIWPGARQHWRPTSPTFRTYALRLCREMAEHYKDNPAIVSWHVGNEYGCHNYFDYSDDAVQAFREWCRDRYGTIDKVNAAWGTNFWSQRLNSFEEILPPRYVGGEGNFTNPGRLLDFKHFCSDALKEFFCAERDVLSEVTPNIPLTTNFMVSASQNTLDYDDWAHEVDFVSNDHYFTPGSWHIDELAYSASLVDGISRKKPWFLMEQSTSAVNWREINPRKEPGELIRDSMLHLAMGADAICYFQWRQSRSGAEKFHSAMLPLAGEHSQIYRDVCALGADLDTLSDAGILRSKLSKARVAIVQDIQSEWATEHTATPTQHIREWTEPLDWFAAFANRGVTADVTPIHAQWDTYDAVVIPCVYLFSEEMAERLRTFVRNGGKAFVTYYSALADEHDRLHTEGWPGLIGDVVGVRIEEHCPLGTLFPGMLDHLDVSNGTVVHDLADVIDAIADDTTVLATFEADPATGMDGRAAITVHPYHEGGVAYIAGKLGRDGISQSLPEICAALGFELDADPRAGDVLRVVREQEDGAIFEFLFNRTRNTVTADRPAGDMLICSLATDSTDKVTLEPNGVLAFRR
notes: full-length, 695 residues, 78 kDa calculated, no signal peptide; C-terminal His6 (pET-30a(+)), E. coli BL21(DE3), Ni-NTA purified; homodimer by native PAGE (~180 kDa)
**Q.** With B1 as the protein, how does the Km read?
**A.** 5.14 mM
